Test results reported in patent US20240360436A1 (DDBIO, published 2024).

Molecular target: T1, CD40 antigen (biotin-label-free, AcroBio Cat #: CDO-H5253) (UniProt P25942 21-193)
T1 construct: Bought protein; A biotin-labeled form (CDO-H82E8) was used for panning only; also called CD40 antigens
Assay: ELISA, CD40 antigen coated, anti-flag-HRP, OD405

T1 sequence (P25942 21-193 limits assumed): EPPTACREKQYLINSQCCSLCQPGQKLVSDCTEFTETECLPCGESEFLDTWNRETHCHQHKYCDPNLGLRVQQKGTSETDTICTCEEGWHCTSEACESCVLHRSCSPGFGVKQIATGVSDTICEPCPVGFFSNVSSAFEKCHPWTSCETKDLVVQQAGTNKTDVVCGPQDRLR

Binder	ELISA reading [OD405]
DDBK003-3 (Fab, V domains shown, Light-chain replacement clone of Selicrelumab; also expressed as KLC/IgG1) VH: not shown VL: DIQMTQSPSSVSASIGDRVTVTCRASQAIGSWVAWYQQKPGKVPKLLIYSASKIQSGVPSRFSGSGSGTDFTLTISSLQPEDFATYYCQQANSFPITFGQGTLLEIKR	2.87
DDBK003-2 (Fab, V domains shown, Light-chain replacement clone of Selicrelumab; also expressed as full-length antibody (KLC/IgG1)) VH: not shown VL: DIQMTQSPSSVSASVGDRVTITCRATQDIRPWLAWYQQRPGKAPQLLIYRTSTLQSGVPSRFSGSGSGTDFTLTISNLQPEDFATYYCQHAKIFPITFGQGTRLEIKR	3.15
DDBK003-12 (Fab, V domains shown, Heavy-chain replacement clone of Selicrelumab; also expressed as KLC/IgG1) VH: QVQLQESGPGLVKPSETLSLTCNVSGYSITRGYFWGWIRQPPGKGLEWIGSIYQSGAARYNPSLQSRVTLSVDTSKNQFSLKLTSVTAADTAVYYCARDAATQVRGSWYNGYYFDPWGQGTLVTVSS VL: DIQMTQSPSSVSASVGDRVTITCRASQGIYSWLAWYQQKPGKAPNLLIYTASTLQSGVPSRFSGSGSGTDFTLTISSLQPEDFATYYCQQANIFPLTFGGGTKVEIKR	3.22
DDBK003-14 (Fab, V domains shown, Light- and heavy-chain double replacement clone of Selicrelumab; also expressed as KLC/IgG1) VH: QVQLVESGAEVKKPGSSVKVSCKASGGTFSASAISWVRQAPGQGLEWMGGIFPILGSANYAQKFQGRVTITADESTSTAYMELSSLRSEDTAVYYCARDLAGYNYGFFGYWGRGTLVTVSS VL: DIQMTQSPSSVSASVGDRVTITCRASQGINSWLAWYQQKPGRAPKLLIYTASTLQSGVPSRFSGSGSGTDFTLTISSLQPEDFATYYCQQAKSFPLTFGGGTKVEIKR	2.02
DDBK003-13 (Fab, V domains shown, Heavy-chain replacement clone of Selicrelumab; also expressed as KLC/IgG1) VH: EVQLVQSGPGLVRPSETLSLTCSASGGSVSSASDLWGWIRQAPGKGLEWIGNIYYLGKTDYNPSLGGRVSITMDKSKNQFSLRLSSVTAADTAMYYCAKRSTLPMRGFFVSWGQGTTVTVSS VL: DIQMTQSPSSVSASVGDRVTITCRASQGIYSWLAWYQQKPGKAPNLLIYTASTLQSGVPSRFSGSGSGTDFTLTISSLQPEDFATYYCQQANIFPLTFGGGTKVEIKR	3.33

Other lines, results leading:

ELISA reading [OD405]	Binder
2.92	Selicrelumab (Fab, V domains shown, Also expressed as full-length antibody; also called #1; Positive antibody) VH: not shown VL: DIQMTQSPSSVSASVGDRVTITCRASQGIYSWLAWYQQKPGKAPNLLIYTASTLQSGVPSRFSGSGSGTDFTLTISSLQPEDFATYYCQQANIFPLTFGGGTKVEIKR
1.93	DDBK003-16 (Fab, V domains shown, Light- and heavy-chain double replacement clone of Selicrelumab; also expressed as KLC/IgG1) VH: QVQLVESGAEVKKPGSSVKVSCKASGGTFSASAISWVRQAPGQGLEWMGGIFPILGSANYAQKFQGRVTITADESTSTAYMELSSLRSEDTAVYYCARDLAGYNYGFFGYWGRGTLVTVSS VL: DIQMTQSPSSVSASVGDRVTITCRASQGISSWLAWYQQKPGKAPKLLIYAASSLQSGVPSRFSGSGSGTDFTLTISSLQPEDFATYYCQQANSFPLTFGGGTKLEIKR
